Measured values from patent US20060264369, “Aptamers to von Willebrand Factor and their use as thrombotic disease therapeutics” (published 2006).
Positions count from the first letter of the chain named.

B1: AMX237.E9 (ssDNA)
DNA: CTACCTACGATCTGACTAGCTCCAGTGTTTTGTCTAATAACCGTGCGGTGCCTCCGTGAGCTTACTCTCATGTAGTTCC
B2: AMX238.G5 (ssDNA)
DNA: B1 DNA with G32A, C34T, T35C
B3: AMX237.E2 (ssDNA)
DNA: B1 DNA with T31C, G32A
B4: AMX237.A11 (ssDNA)
DNA: B1 DNA with G32A, T35C
B5: AMX237.A2 (ssDNA)
DNA: B1 DNA with T31C, G32A, T35C
B6: AMX238.D8 (ssDNA)
DNA: B1 DNA with G32A, T35C, T38C
B7: AMX238.D5 (ssDNA)
DNA: B1 DNA with G32A, C34T, T35C, C51T
B8: AMX237.B11 (ssDNA)
DNA: B1 DNA with G32A
B9: AMX237.H5 (ssDNA)
DNA: B1 DNA with T31C, G32A, C34T
B10: AMX238.D12 (ssDNA)
DNA: B1 DNA with T31C, G32A, C34T, T35C
B11: AMX237.B4 (ssDNA)
DNA: B1 DNA with T31C, G32A, T35C, C52T
B12: AMX237.F9 (ssDNA)
DNA: CTACCTACGATCTGACTAGCTTGGTAGCGATTCTGTGGAGCTGCGGTTTGGTCGACGTCAGCTTACTCTCATGTAGTTCC
B13: AMX237.B1 (ssDNA)
DNA: B12 DNA with T31C, T32A, T34A
B14: AMX236.G4 (ssDNA)
DNA: B12 DNA with T31C, C33T, C41A, C53T
B15: AMX236.A12 (ssDNA)
DNA: B12 DNA with T31C
B16: AMX236.C12 (ssDNA)
DNA: B12 DNA with T31C, T34C
B17: AMX237.D5 (ssDNA)
DNA: B12 DNA with T31C, T32A, C53T
B18: AMX237.F12 (ssDNA)
DNA: B12 DNA with C33T
B19: AMX236.A11 (ssDNA)
DNA: B12 DNA with T31C, T48C, T52C
B20: AMX237.C9 (ssDNA)
DNA: B12 DNA with C28T, T31C, C33T
B21: AMX237.G7 (ssDNA)
DNA: B12 DNA with T31C, C33T
B22: AMX237.H10 (ssDNA)
DNA: B12 DNA with T31C, T34A, T36A
B23: AMX236.B8 (ssDNA)
DNA: B12 DNA with T31C, T48C
B24: AMX236.H1 (ssDNA)
DNA: CTACCTACGATCTGACTAGCCTCAGATTGACTCCGGCCGACTTGTTTTAATCTTCTGAGTGCTTACTCTCATGTAGTTCC
B25: AMX236.G1 (ssDNA)
DNA: B24 DNA with C38T
B26: AMX238.E7 (ssDNA)
DNA: CTACCTACGATCTGACTAGCGTGCAGTGCCTATTTTAGGCCGTGCGGTGCCTCCGTCACGCTTACTCTCATGTAGTTCC
B27: AMX238.F3 (ssDNA)
DNA: B26 DNA with C40T, T48G
B28: AMX238.F2 (ssDNA)
DNA: B26 DNA with G21A, T31C, T35C, C59T
B29: AMX237.C11 (ssDNA)
DNA: B26 DNA with T35C, C59T
B30: AMX237.C4 (ssDNA)
DNA: CTACCTACGATCTGACTAGCTTTCAGTCTTCCACATTTATAGGGTTTGGCATTGGGTCTGGCTTACTCTCATGTAGTTCC
B31: AMX237.F5 (ssDNA)
DNA: B30 DNA with C24T
B32: AMX237.F1 (ssDNA)
DNA: B30 DNA with A35G
B33: AMX238.H11 (ssDNA)
DNA: B30 DNA with C31T
B34: AMX237.G2 (ssDNA)
DNA: B30 DNA with C31T, C34T
B35: AMX237.E5 (ssDNA)
DNA: B30 DNA with C32T
B36: AMX237.F10 (ssDNA)
DNA: CTACCTACGATCTGACTAGCGTGCAGTGCCCATTCCAGGCCGTGCGGTATCCTCCGTCACGCTTACTCTCATGTAGTTCC
B37: AMX236.H2 (ssDNA)
DNA: B36 DNA with C31T, T34C, T50G
B38: AMX237.C5 (ssDNA)
DNA: B36 DNA with C31T, T34C, C35T
B39: AMX236.B3 (ssDNA)
DNA: CTACCTACGATCTGACTAGCCTTACCTATTCCCTTCTGCGGAATACGTCGAGTACTATGCTTACTCTCATGTAGTTCC
B40: AMX238.G4 (ssDNA)
DNA: CTACCTACGATCTGACTAGCTTGTCGCACTTTTGGTTGGTCTGGTTGGTTCTAAGTGCGCTTACTCTCATGTAGTTCC
B41: AMX199.G5 (ssDNA)
DNA: CTACCTACGATCTGACTAGCGAAACACTAGGTTGGTTAGGATTGGTGTGTTCCCGCCCTGCTTACTCTCATGTAGTTCC
B42: AMX200.G11 (ssDNA)
DNA: CTACCTACGATCTGACTAGCGGAACGAGAATGCTGATGGATTGCTCAGGTCTGCTGGCTGCTTACTCTCATGTAGTTCC
B43: AMX200.B1 (ssDNA)
DNA: B42 DNA with C25T, T45C
B44: AMX200.D8 (ssDNA)
DNA: B42 DNA with C25T, C33T
B45: AMX200.A7 (ssDNA)
DNA: B42 DNA with C25T, C44T
B46: AMX200.B8 (ssDNA)
DNA: B42 DNA with C25T, C33T, A36G
B47: AMX200.F9 (ssDNA)
DNA: B42 DNA with C25T, A29G, C44G
B48: AMX200.B9 (ssDNA)
DNA: B42 DNA with C25T, G57A
B49: AMX200.D11 (ssDNA)
DNA: B42 DNA with C25T, G26A
B50: AMX200.E8 (ssDNA)
DNA: B42 DNA with C25T, A29G, A36G, C54T

Each binder was assayed against von Willebrand factor full length (Homo sapiens, UniProt P04275 SEQ:764-2813) (assay: filter; 20 nM protein). Settings: tags: Calbiochem 681300.
Description: When a significant positive ratio of binding of DNA in the presence of human or rabbit vWF A1 domain versus in the absence of protein was seen, the pools were cloned using the TOPO TA cloning kit (Invitrogen Cat.# 45-0641, Carlsbad, Calif.) according to the manufacturer's instructions. […] All unique clones were assayed twice in a 3-point dot blot screen (no protein target control, 20 nM full length human vWF (Calbiochem Cat.# 681300, La Jolla, Calif.), or 20 nM rabbit vWF A1 domain. The data is presented in the third and fourth columns of Table 17 below as the ratio of the fraction of the aptamer bound to the nitrocellulose in the presence of the target protein to the fraction of aptamer bound in the absence of the target protein.

In order of falling binding signal:
1. B2  3.06 ratio to no protein
2. B26  3.02 ratio to no protein
3. B36  2.9 ratio to no protein
4. B8  2.87 ratio to no protein
5. B28  2.84 ratio to no protein
6. B27  2.83 ratio to no protein
7. B21  2.68 ratio to no protein
8. B4  2.66 ratio to no protein
9. B15  2.64 ratio to no protein
10. B5  2.6 ratio to no protein
11. B38  2.55 ratio to no protein
12. B10  2.4 ratio to no protein
13. B12  2.21 ratio to no protein
14. B1  2.13 ratio to no protein
15. B37  2.12 ratio to no protein
16. B20  2.05 ratio to no protein
17. B29  2.04 ratio to no protein
18. B6  2.02 ratio to no protein
19. B19  2.02 ratio to no protein
20. B13  2 ratio to no protein
21. B16  1.99 ratio to no protein
22. B18  1.95 ratio to no protein
23. B22  1.71 ratio to no protein
24. B14  1.7 ratio to no protein
25. B23  1.66 ratio to no protein
26. B9  1.63 ratio to no protein
27. B3  1.61 ratio to no protein
28. B39  1.54 ratio to no protein
29. B25  1.47 ratio to no protein
30. B7  1.46 ratio to no protein
31. B11  1.42 ratio to no protein
32. B17  1.41 ratio to no protein
33. B24  1.1 ratio to no protein
34. B40  1.09 ratio to no protein
35. B34  1.02 ratio to no protein
36. B31  0.99 ratio to no protein
37. B32  0.98 ratio to no protein
38. B33  0.98 ratio to no protein
39. B30  0.97 ratio to no protein
40. B35  0.97 ratio to no protein

These binders were tested against von Willebrand factor A1 domain (human) (Homo sapiens, UniProt P04275 SEQ:13-246) (assay: filter; 100 nM protein). Settings: not given.
Description: All unique clones were assayed in a 3-point dot blot screen (no protein target control, 100 nM human vWF A1 domain (SEQ ID NO 5), or 100 nM rabbit vWF A1 domain (SEQ ID NO 6). The data are presented in the third and fourth columns of Table 14 below as the ratio of the fraction of the aptamer bound to the nitrocellulose in the presence of the target protein to the fraction of aptamer bound in the absence of the target protein.

In order of falling binding signal:
1. B46  4.13 ratio to no protein
2. B43  4.01 ratio to no protein
3. B49  3.34 ratio to no protein
4. B44  2.86 ratio to no protein
5. B48  2.54 ratio to no protein
6. B42  1.73 ratio to no protein
7. B41  1.41 ratio to no protein
8. B50  1.04 ratio to no protein
9. B45  0.97 ratio to no protein
10. B47  0.97 ratio to no protein
